{"source": "paper PMC4176178", "about": "“An evolutionarily conserved interaction of tumor suppressor protein Pdcd4 with the poly(A)-binding protein contributes to translation suppression by Pdcd4”", "key": {"His-PABP-RRM1-4": {"molecular_target": "His-PABP-RRM1-4 (mouse, UniProt P29341 1-375)", "sequence (P29341 1-375)": "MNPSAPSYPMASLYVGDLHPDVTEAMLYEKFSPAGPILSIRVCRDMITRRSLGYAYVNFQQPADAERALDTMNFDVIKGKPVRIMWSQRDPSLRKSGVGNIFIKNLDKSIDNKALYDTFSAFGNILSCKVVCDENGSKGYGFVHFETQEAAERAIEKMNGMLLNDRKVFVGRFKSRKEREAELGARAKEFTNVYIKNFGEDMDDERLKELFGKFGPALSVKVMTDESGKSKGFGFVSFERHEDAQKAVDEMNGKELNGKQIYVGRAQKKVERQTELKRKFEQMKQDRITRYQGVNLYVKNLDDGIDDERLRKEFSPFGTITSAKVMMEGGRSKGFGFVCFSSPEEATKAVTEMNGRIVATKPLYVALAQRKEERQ", "test": "EMSA; EMSA: 10 mM Tris-HCl pH 7.8, 100 mM NaCl, 1 mM EDTA, 2% ficoll, 30 min on ice; blot: 10 mM Tris-HCl pH 7.5, 5 mM KCl, 2 mM MgCl2, room temperature; poly(U): 10", "settings": "protein: recombinant; tags: His; label: 5' 32P; single strand"}, "GST-Pdcd4 wt": {"molecular_target": "T1, GST-Pdcd4 wt (human, UniProt Q53EL6 1-469)", "T1 sequence": "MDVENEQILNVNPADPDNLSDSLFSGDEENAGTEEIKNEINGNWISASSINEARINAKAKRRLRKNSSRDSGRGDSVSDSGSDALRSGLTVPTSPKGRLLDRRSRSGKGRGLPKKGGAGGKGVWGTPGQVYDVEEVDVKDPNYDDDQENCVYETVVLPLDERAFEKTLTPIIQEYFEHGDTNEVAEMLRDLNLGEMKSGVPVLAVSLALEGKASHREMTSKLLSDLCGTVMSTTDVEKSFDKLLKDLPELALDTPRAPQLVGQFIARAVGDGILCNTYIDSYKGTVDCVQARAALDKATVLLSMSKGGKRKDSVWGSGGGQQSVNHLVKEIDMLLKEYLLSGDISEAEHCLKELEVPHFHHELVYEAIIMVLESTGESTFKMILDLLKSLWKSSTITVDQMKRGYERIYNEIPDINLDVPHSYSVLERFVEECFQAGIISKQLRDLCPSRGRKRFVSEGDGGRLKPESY", "test": "EMSA; EMSA: 10 mM Tris-HCl pH 7.8, 100 mM NaCl, 1 mM EDTA, 2% ficoll, 30 min on ice; blot: 10 mM Tris-HCl pH 7.5, 5 mM KCl, 2 mM MgCl2, room temperature; poly(U): 10", "settings": "protein: recombinant; tags: GST; label: 5' 32P; single strand"}}}
{"binder": "AAAAAAAAAAAAAAAAAAAAAAAAA (ssRNA)", "note": "[oligo(A)25]", "values": [{"measurement": "binding result", "setting": "His-PABP-RRM1-4", "value": "binds"}, {"measurement": "binding result", "setting": "GST-Pdcd4 wt", "value": "no binding"}]}
